Changes are numbered by the printed parent chain. Names may count otherwise. “Also recorded” adds a separate entry of the source.
B1: normal mimic NPM: flag-tagged NPM phosphomutant T86A-S88A-T95A-T234E-S242E expressed by lentivirus (protein)
chain: MEDSMDMDMSPLRPQNYLFGCELKADKDYHFKVDNDENEHQLSLRTVSLGAGAKDELHIVEAEAMNYEGSPIKVTLATLKMSVQPAVALGGFEIAPPVVLRLKCGSGPVHISGQHLVAVEEDAESEDEEEEDVKLLSISGKRSAPGGGSKVPQKKVKLAADEDDDDDDEEDDDEDDDDDDFDDEEAEEKAPVKKSIRDTPAKNAQKSNQNGKDSKPSSTPRSKGQESFKKQEKEPKTPKGPESVEDIKAKMQASIEKGGSLPKVEAKFINYVKNCFRMTDQEAIQDLWQWRKSL
modifications: left off: small tags and cut ends
notes: flag-tagged NPM phosphomutant T86A-S88A-T95A-T234E-S242E expressed by lentivirus
B2: stress mimic NPM: flag-tagged NPM phosphomutant T86E-S88E-T95E-T234A-S242A expressed by lentivirus (protein)
chain: B1 chain with A86E, A88E, A95E, E234A, E242A
modifications: left off: small tags and cut ends
notes: flag-tagged NPM phosphomutant T86E-S88E-T95E-T234A-S242A expressed by lentivirus

Key:
Assay type in all cases: cell-based
primary human PTECs = details: PTECs, ATP depletion; versus control peptide
Protocol: Exposure to metabolic inhibitors is an established model of ischemic stress that reduces ATP content to, 10% of baseline values until recovery is initiated.24,26 To achieve ATP depletion, cells were washed three times in glucose-free DMEM (Invitrogen, Carlsbad, CA) followed by incubation in glucose-free DMEM containing sodium cyanide (5 mM) and 2-deoxy-glucose (5 mM) for the indicated times.26
Recovery was initiated by replacing the stress medium described above with complete primary cell culture medium containing glucose and substrates that support the rapid restoration of cell ATP.27
For in vitro testing in primary human PTECs, peptides ([…]) were tested that replicate the Bax domain responsible for binding NPM,34 or two peptides designed to interfere with NPM function were compared with a random nonspecific sequence of the same length (control). Peptides intended to interfere with NPM function overlap key phosphorylation sites located at the NPM amino terminus (peptide 2) or carboxy terminus (peptide 3) detected by mass spectrometry. To improve cell uptake, all peptides contained a cell-penetrating sequence13. For in vivo experiments, a renal-targeting sequence (NLS) was added to enhance renal peptide uptake.35 Peptides were commercially synthesized (Biomatik, Wilmington, DE) J Am Soc Nephrol 30: ccc-ccc, 2018 Nucleophosmin in AKI 3www.jasn.org BASIC RESEARCHas follows: NPM-Bax blocking peptide: Ac-KKKRKV-(bA)-[…]-COOH (SEQ ID NO: 8); peptide 2: AC-PKKKRKV-(bA)-[…]-COOH (SEQ ID NO: 9); and peptide 3: AC-PKKKRKV-(bA)-ESFKK-QEKTPKTPKGPSSVED-IKAK-COOH (SEQ ID NO: 10). A single dose ([…] of the NPM-Bax blocking or control peptide) was administered by tail vein injection immediately after release of the pedicle clamps(0 timepoint) […] in each experimental group. A total of 42 control and 56 experimental animals were studied.
Transient exposure to metabolic inhibitors replicates ischemia in vivo by activating Bax and causing cell death.13,29,36-38 Cell viability was assayed using a modified colorimetric technique (MTTassay).37 The number of surviving cells is expressed as a percentage of viable control cells detected at baseline. Serum BUN and creatinine levels were measured in tail vein blood samples for 7 days after ischemia using QuantiChrom BUN or creatinine assay kits (BioAssay Systems, Hayward, CA) according to the manufacturer's instructions.

PTEC = test: Toxicity of pharmacologic agents in PTEC; details: exposure to the IC50 dose for 48-72 hr; data not shown
Text: The inventors have also tested pharmacologic agents that disrupt NPM-Bax at specific steps in the cell death pathway (outlined in FIG. 11). These agents include geronylgeronylacetone (GGA), a potent Hsp70 inducer86, avrainvillamide, and NSC34888437. […] The inventors recently reported that GGA induces Hsp70 in murine PTEC and in the intact murine kidney. Hsp70 markedly reduces NPM-Bax complex formation during ischemic stress by 2 distinct mechanisms: a nucleolar-restricted Hsp70 mutant limits NPM translocation into the cytosol, whereas a cytosol restricted Hsp70 mutant sequesters […].

[1] = system: primary murine proximal tubule epithelial cells (PTECs); test: Functional bioassays of flag-tagged NPM phosphomimic proteins expressed in PTECs; details: for Postischemia cell survival: 60 minutes ATP depletion, FIG. 5E; for NPM localization in resting cells: absence of ischemic stress, FIG. 5A; for NPM-Bax complex formation: after ATP depletion, FIG. 5C; for NPM and active Bax accumulation in isolated mitochondria: after ischemic stress, FIG. 5D; for NPM oligomeric state: resting cells, native gel, FIG. 5B
Text: The biologic behavior of nucleophosmin (NPM) phosphomimic proteins assessed using functional bioassays performed in primary murine proximal tubule epithelial cells (PTECs) that express flag-tagged wild type (WT), a normal (Nor-M or NrNPM) NPM mimic protein, or a stress (Stre-M, StNPM, or Stress-M) NPM mimic protein that replicates differential NPM phosphorylation. […] EV, empty sgOpti vector; RDU, relative density unit. *P, 0.05 for Nor-M and Stress-M NPM phosphomimics versus control (CTL).
Human NPM cDNA (catalog no. 34553; Addgene, Cambridge, MA) and pCDH lentivector systems (System Biosciences, Mountain View, CA) were used to generate NPM wild-type, “NPM stress mimic” (T86E-S88E-T95E-T234A-S242A), and “NPM normal mimic” (T86A-S88A-T95A-T234E-S242E) lentiviral expression plasmids by PCR-based mutagenesis with a flag tag fused to the 59 open reading frame. PCR products were cloned into pCDH vector BamHI/EcoRI sites. All constructs were confirmed by DNA sequencing before cotransfection with pPACKG1 lentivector packaging plasmids into HEK293NT cells to generate lentipseudoviral particles. The resultant pseudoviruses were harvested and purified, and titers were determined according to the manufacturer's instructions. Cells were exposed to virus (MOT 5-8) diluted in Opti-MEM (Invitrogen). After 6 hours incubation with virus-infected medium, a complete culture medium was substituted for an additional 16-hour incubation period.
To determine the biologic role of differential NPM phosphorylation at these five serine/threonine sites and the contribution to cytotoxicity, two flag-tagged NPM phosphomutant proteins as well as wild-type NPM were generated and introduced into human proximal tubule cells. These two mimic proteins replicated the phosphorylation state of NPM in either its normal or stressed configuration at the five differentially phosphorylated sites identified by mass spectrometry (FIG. 4). Specific bioassays were then used to assess the effect of these five post-translational phosphorylation changes on toxic NPM behaviors, including translocation, deoligomerization, NPM-Bax complex formation, mitochondrial NPM and Bax accumulation, and cell death.
Based on this phospho-proteomic data, 32 site-specific, amino terminal, flag-tagged NPM proteins with differential phosphorylation were generated (see FIG. 4B) and placed in a lentiviral vector ([…] phospho-mimic proteins; ref Wang, Havasi et al. 2011). Both the plasmid sequence and protein expression were confirmed. Serine or threonine residues in each of the NPM phospho-mimics was rendered either nonphosphorylatable (alanine substitution) or phospho-mimetic (glutamic acid substitution) at each of the 5 NPM residues identified by mass spec to be altered by ischemia. These NPM phospho-mimics represent all of the possible combinations of constitutively non-phosphorylated and phosphorylated variants at all of the 5 phosphosites ([…], see table, FIG. 4B). The flag epitope facilitates immunohistochemistry for detecting NPM distribution, NPM oligomerization and immunoprecipitation (IP) for detecting interaction between Bax and each NPM phospho-mimic. To establish a causal link between phosphorylation and NPM-function, a flag-tagged NPM mimic that replicated the NPM phospho-state in healthy PTEC and kidney tissue (#10, “normal NPM mimic”) or replicated NPM phosphorylation in post-ischemic cells and tissue (#11; “stress-NPM mimic”; FIG. 4B) was introduced into primary murine PTEC for further study. Dramatic differences in the biologic behavior of these 2 NPM phospho-mimics were detected. […] Using this phospho-data generate 2 new therapeutic peptides that target either T86, S88 and T95 or T232 and S240 were generated (FIG. 4A) and tested (FIG. 7). Screening the remaining NPM mimic proteins can identify the specific function of all 5 phospho-sites.

[2] = listed as normal NPM-phospho-mimic

| Molecule | Cell survival after ischemic stress (primary human PTECs) | PTEC morphology and toxicity (PTEC) | Postischemia cell survival [1] | NPM-Bax complex formation [1] | NPM and active Bax accumulation in isolated mitochondria [1] | NPM oligomeric state [1] | other results |
| --- | --- | --- | --- | --- | --- | --- | --- |
| AC-PKKKRKV-(bA)-ESFKK-QEKTPKTPKGPSSVED-IKAK-COOH (PKKKRKVAESFKKQEKTPKTPKGPSSVEDIKAK; N-acetyl, NLS PKKKRKV-betaAla N-terminal; MOD_RES (8)..(8) Beta-alanine) [peptide #3] | significantly improve cell survival |  |  |  |  |  |  |
| O=C(C[n+]1cccc2cc(Cl)ccc21)c1cccc([N+](=O)[O-])c1.[Br-] [NSC34888437] |  | does not alter PTEC morphology or cause significant toxicity |  |  |  |  |  |
| CC1(C)C=Cc2c(ccc3c2[N+]([O-])=C2C3=C[C@@]34NC(=O)[C@]5(CCCN5C3=O)C[C@H]4C2(C)C)O1 [avrainvillamide] |  | does not alter PTEC morphology or cause significant toxicity |  |  |  |  |  |
| AC-PKKKRKV-(bA)-TLKMSVQPTVSLGGFEITPPVVLRLK-COOH (PKKKRKVATLKMSVQPTVSLGGFEITPPVVLRLK; N-acetyl, NLS PKKKRKV, beta-alanine linker; MOD_RES (8)..(8) Beta-alanine) [peptide #2] | significantly improve cell survival |  |  |  |  |  |  |
| B1 |  |  | significantly reduced cell death; also recorded: improved PTEC survival | decreased NPM-Bax complex formation | decreased | formed large oligomers | NPM localization in resting cells ([1]; listed as normal NPM phosphomimic): accumulated in a nucleolar pattern; NPM localization in resting cells [1, 2]: exclusively localized to nucleoli; NPM-Bax complex formation [1, 2]: minimally complexed with Bax; NPM and active Bax accumulation in isolated mitochondria [1, 2]: did not accumulate in isolated mitochondria; NPM oligomeric state [1, 2]: remained in the oligomerized state |
| B2 |  |  | significantly lower | substantially greater | exceeded that observed with wild-type or normal mimic NPM | accumulated as small monomers | Postischemia cell survival ([1]; listed as stress NPM mimic): significantly decreased PTEC survival; NPM localization in resting cells ([1]; listed as NPM stress mimic protein): localized to the cytosol; NPM localization in resting cells ([1]; listed as stress NPM mimic): exclusively localized to the cytosol; NPM-Bax complex formation ([1]; listed as stress NPM mimic): markedly increased NPM-Bax complex formation; NPM and active Bax accumulation in isolated mitochondria ([1]; listed as stress NPM mimic): dramatically increased NPM accumulation in isolated mitochondria; NPM oligomeric state ([1]; listed as stress NPM mimic): caused marked NPM de-oligomerization |

From US12018058B2, “Compositions and methods for diagnosing and/or treating kidney injury” (Boston Medical Center Corporation, priority 2018, dated 2024)
